From publication PMC3466257

Target: immobilized fibrin (UniProt P02679)
Experiment: cell-free flow-based adhesion assay of protein-coated microspheres; 10-µm polystyrene microspheres coated with immunopurified CD44 or human IgG (2×10^6/ml in DPBS, 0.1% BSA) perfused for 5 min at 37°C over immobilized fibrin in a parallel plate flow chamber, 0.25 to 0.5 dyn/cm^2; interacting microspheres counted by phase-contrast videomicroscopy

reduction of binding relative to CD44s from untreated HL60 cells: 30%
Substance: CD44s immunopurified from PDGF-treated HL60 human myeloid cells (from UniProt P16070-12 21-361) (receptor)
